Results reported in article PMC3406025, “Structure and Binding Interface of the Cytosolic Tails of αXβ2 Integrin” (PLoS ONE, 2012).

B1: cytosolic tail (CT) of integrin β2 (residues K724-S769) (domain or fragment, UniProt P05107 724-769, looked up)
chain: KALIHLSDLREYRRFEKEKLKSQWNNDNPLFKSATTTVMNPKFAES
notes: integrin β2 (CD18) cytosolic tail, residues K724-S769; Used 15N-labelled in one direction of the titration and unlabelled in the other; also called β2 CT; CT of β2; source: E. coli BL21DE3, KSI fusion in inclusion bodies, purified (Ni-NTA in 8 M urea, cyanogen bromide cleavage, HPLC); not shown: ketosteroid isomerase (KSI), N-terminal, cleaved
B2: cytosolic tail (CT) of integrin αX (residues K1129-K1163) (domain or fragment, UniProt P20702 1129-1163, looked up)
chain: KVGFFKRQYKEMMEEANGQIAPENGTQTPSPPSEK
notes: integrin αX (CD11c) cytosolic tail, residues K1129-K1163, 35 residues; Used 15N-labelled in one direction of the titration and unlabelled in the other; A GGGGSDP linker lay between KSI and the tail, and formic acid cleaves at the Asp-Pro site, so a Pro may remain at the N-terminus (surmised); The myristoylated synthetic αX CT (GL Biochem) was used only for the structure in DPC micelles, not for …

Tests used:
[1] = target: B2; assay: NMR titration; 15N-1H HSQC; 15N-labelled CT titrated with the unlabelled cognate CT up to two times its concentration (1:2); 10 mM sodium phosphate buffer, pH 6.5, aqueous solution; done in both directions; conditions: both partners purified
[2] = target: B1; assay: as above; conditions: both partners purified

binding result [1]	binding result [2]	Binder
binds	–	B1
–	binds	B2
